In publication PMC8866397:

What was measured:
HMGN1 = assay: two-color EMSA; conditions: value stated for HMGNs together, EMSA: 100 nM nucleosomes in 10 µl 2x TBE (45 mM Tris-borate pH 8.3, 1 mM EDTA), 0.15 mg/ml BSA, 5% Ficoll, 10 min at 4 °C, native 5% PAGE in 2x TBE …
HMGN2 = assay: two-color EMSA; conditions: value stated for HMGNs together, EMSA: 100 nM nucleosomes in 10 µl 2x TBE (45 mM Tris-borate pH 8.3, 1 mM EDTA), 0.15 mg/ml BSA, 5% Ficoll, 10 min at 4 °C, native 5% PAGE in 2x TBE …
[1] = no preference over rMN, histone H3K27me3, scale: ratio of shifted rMNH3K27me3 to rMN fluorescence
[2] = low HMGN:nucleosome ratio, histone H3K27ac, scale: ratio of shifted rMNH3K27ac to rMN fluorescence

rMNH3K27me3 showed a binding signal (HMGN1; [1]) of 1 and a binding signal (HMGN2; [1]) of 1.

rMNH3K27ac showed a binding signal (HMGN1; [2]) of 1.7 and a binding signal (HMGN2; [2]) of 1.7.
